According to US20230322953A1 (HARBOUR BIOMED SHANGHAI, published 2023):

T1: biotinylated human BCMA-Fc, Avitag recombinant protein (ACRO Biosystems, #BC7-H82F0) (human, UniProt Q02223 1-54, biotinylated (Avitag))
T1 construct: extracellular domain; Bought protein; also called huBCMA.Fc; recombinant human BCMA-ECD-Fc
T1 sequence (looked up): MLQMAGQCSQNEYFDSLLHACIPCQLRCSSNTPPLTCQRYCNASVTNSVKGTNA

T2: human BCMA on NCI-H929 cells (ATCC, CRL-9068) (human, UniProt Q02223 1-184)
T2 sequence (looked up): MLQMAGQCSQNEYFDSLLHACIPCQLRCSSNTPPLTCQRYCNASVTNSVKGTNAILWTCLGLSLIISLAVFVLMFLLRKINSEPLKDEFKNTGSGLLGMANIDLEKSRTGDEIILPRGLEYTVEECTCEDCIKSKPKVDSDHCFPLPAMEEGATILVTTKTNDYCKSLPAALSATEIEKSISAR


Tests used:
[1] = biological target: T3, cynomolgus monkey BCMA (ACRO Biosystems, #BCA-C82F4) (cynomolgus monkey, UniProt A0A2K5UD97 1-53); experiment: BLI; KD for cynomolgus monkey BCMA divided by KD for human BCMA
T3 construct: Bought protein; also called cyBCMA.Fc

[2] = biological target: T1, biotinylated human BCMA-Fc, Avitag …; experiment: BLI (Octet Red96e), biotinylated BCMA-Fc on SA sensor, 1:1 global fitting;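 also: Anti-BCMA antibodies analysed as binding partners of the captured BCMA antigen, with reference signals removed by double referencing before kinetic fitting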
[3] = biological target: T3, cynomolgus monkey BCMA (ACRO …); experiment: BLI (Octet Red96e), cyBCMA.Fc on SA sensor, 1:1 global fitting
[4] = biological target: T4, human CD3 (TCR/CD3 complex) on human T cells (human, UniProt P07766 23-207); experiment: flow cytometry (FACS) on human T cells, Experiment 1
T4 construct: whole, on cells

[5] = biological target: T4, human CD3 (TCR/CD3 complex) on human T …; experiment: flow cytometry (FACS) on human T cells, Experiment 2
[6] = biological target: T5, cynomolgus monkey CD3 (TCR/CD3 complex) on cynomolgus monkey T cells (cynomolgus monkey); experiment: flow cytometry (FACS) on cynomolgus monkey T cells
T5 construct: whole, on cells

[7] = biological target: T4, human CD3 (TCR/CD3 complex) on human T …; experiment: flow cytometry (FACS) on human T cells, Experiment 3
[8] = biological target: T2, human BCMA on NCI-H929 cells (ATCC, …); experiment: cell-based or functional assay

T5 sequence (Q95LI5 22-198, one chain of several): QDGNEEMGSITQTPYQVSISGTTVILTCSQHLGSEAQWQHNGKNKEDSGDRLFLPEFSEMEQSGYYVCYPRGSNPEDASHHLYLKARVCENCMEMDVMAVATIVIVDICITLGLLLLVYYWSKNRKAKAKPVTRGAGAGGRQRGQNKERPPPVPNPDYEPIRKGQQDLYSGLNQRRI
T4 sequence (P07766 23-207, one chain of several): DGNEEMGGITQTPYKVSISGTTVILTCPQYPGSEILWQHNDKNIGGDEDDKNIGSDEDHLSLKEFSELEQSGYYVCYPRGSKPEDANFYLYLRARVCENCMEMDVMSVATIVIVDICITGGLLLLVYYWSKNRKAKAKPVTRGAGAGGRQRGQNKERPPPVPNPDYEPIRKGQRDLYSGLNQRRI
T3 sequence (A0A2K5UD97 entry or part of it): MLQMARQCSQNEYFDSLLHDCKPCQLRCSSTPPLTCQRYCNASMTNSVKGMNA

Binder	KD ratio (cy BCMA/hu BCMA) [1]	Kd [2]	koff [2]	kon [2]	Kd [3]	koff [3]	kon [3]	Maximum MFI [6]	Maximum MFI [7]	IFN-γ release, EC50 [8]	IFN-γ release, Maximum [8]	IL-2 release, EC50 [8]	IL-2 release, Maximum [8]	IL-6 release, EC50 [8]	IL-6 release, Maximum [8]	IL-10 release, EC50 [8]	IL-10 release, Maximum [8]	NCI-H929 killing, EC50 [8]	NCI-H929 killing, Maximum killing rate % [8]	TNF-α release, EC50 [8]	also measured
PR000274, anti-BCMA monoclonal antibody CA8-J6M0 (antibody, human IgG1, kappa, V domains shown, also called Positive control 1; CA8-J6M0 hIgG1) VH: QVQLVQSGAEVKKPGSSVKVSCKASGGTFSNYWMHWVRQAPGQGLEWMGATYRGHSDTYYNQKFKGRVTITADKSTSTAYMELSSLRSEDTAVYYCARGAIYDGYDVLDNWGQGTLVTVSS VL: DIQMTQSPSSLSASVGDRVTITCSASQDISNYLNWYQQKPGKAPKLLIYYTSNLHSGVPSRFSGSGSGTDFTLTISSLQPEDFATYYCQQYRKLPWTFGQGTKLEIKR	0.06	655 pM	0.000135 s⁻¹	206000 M⁻¹ s⁻¹	38.8 pM	7.76e-06 s⁻¹	200000 M⁻¹ s⁻¹	–	–	–	–	–	–	–	–	–	–	–	–	–	–
PR000260, anti-CD3 monoclonal antibody SP34 (hIgG1 chimeric antibody) (antibody, V domains shown) VH: EVQLVESGGGLVQPKGSLKLSCAASGFTFNTYAMNWVRQAPGKGLEWVARIRSKYNNYATYYADSVKDRFTISRDDSQSILYLQMNNLKTEDTAMYYCVRHGNFGNSYVSWFAYWGQGTLVTVSA VL: QAVVTQESALTTSPGETVTLTCRSSTGAVTTSNYANWVQEKPDHLFTGLIGGTNKRAPGVPARFSGSLIGDKAALTITGAQTEDEAIYFCALWYSNLWVFGGGTKLTVLG	–	–	–	–	–	–	–	–	–	–	–	–	–	–	–	–	–	–	–	–	Maximum MFI [4]: 7160 MFI; Maximum MFI [5]: 6030 MFI
PR001046, anti-BCMA HCAb antibody (clone 1005P63B7) (antibody, human IgG1, V domains shown) VH: EVQLVETGGGLIQPGGSLRLSCAASGFTVSDNYMTWVRQAPGKGLEWVSVIFSGGNTYYADSVKGRFTISRDNAKNTLYLQMNSLRAEDTALYYCARRNYDDTRGTDVFDIWGQGTMVTVSS	1.54	77.5 pM	3.56e-05 s⁻¹	459000 M⁻¹ s⁻¹	119 pM	7.54e-05 s⁻¹	633000 M⁻¹ s⁻¹	–	–	–	–	–	–	–	–	–	–	–	–	–	–
PR002929 (bispecific antibody, human IgG1, lambda, L234A L235A) light: QAVVTQEPSLTVSPGGTVTLTCRSSTGAVTTSNYANWVQQKPGQAPRGLIGGTNKRAPWTPARFSGSLLGDKAALTLLGAQPEDEAEYFCALWYSNLWVFGGGTKLTVLGQPKAAPSVTLFPPSSEELQANKATLVCLISDFYPGAVTVAWKADSSPVKAGVETTTPSKQSNNKYAASSYLSLTPEQWKSHRSYSCQVTHEGSTVEKTVAPTECS heavy: not shown EVQLVETGGGLIQPGGSLRLSCAASGFTVSDNYMTWVRQAPGKGLEWVSVIFSGGNTYYADSVKGRFTISRDNAKNTLYLQMNSLRAEDTALYYCARRNYDDTRGTDVFDIWGQGTMVTVSSASEPKSSDKTHTCPPCPAPEAAGGPSVFLFPPKPKDTLMISRTPEVTCVVVDVSHEDPEVKFNWYVDGVEVHNAKTKPREEQYNSTYRVVSVLTVLHQDWLNGKEYKCKVSNKALPAPIEKTISKAKGQPREPQVCTLPPSREEMTKNQVSLSCAVKGFYPSDIAVEWESNGQPENNYKTTPPVLDSDGSFFLVSKLTVDKSRWQQGNVFSCSVMHEALHNHYTQKSLSLSPGK	1.11	5950 pM	0.00148 s⁻¹	249000 M⁻¹ s⁻¹	6620 pM	0.00582 s⁻¹	879000 M⁻¹ s⁻¹	10100 MFI	283000 MFI	–	–	–	–	–	–	–	–	–	–	–	–
PR002895 (bispecific antibody, human IgG1, lambda, L234A L235A) light: QAVVTQEPSLTVSPGGTVTLTCRSSTGAVTTSNYANWVQQKPGQAPRGLIGGTNKRAPWTPARFSGSLLGDKAALTLLGAQPEDEAEYFCALWYSNLWVFGGGTKLTVLGQPKAAPSVTLFPPSSEELQANKATLVCLISDFYPGAVTVAWKADSSPVKAGVETTTPSKQSNNKYAASSYLSLTPEQWKSHRSYSCQVTHEGSTVEKTVAPTECS heavy: not shown EVQLVETGGGLIQPGGSLRLSCAASGFTVSDNYMTWVRQAPGKGLEWVSVIFSGGNTYYADSVKGRFTISRDNAKNTLYLQMNSLRAEDTALYYCARRNYDDTRGTDVFDIWGQGTMVTVSSGGGGSGGGGSGGGGSEVQLVETGGGLIQPGGSLRLSCAASGFTVSDNYMTWVRQAPGKGLEWVSVIFSGGNTYYADSVKGRFTISRDNAKNTLYLQMNSLRAEDTALYYCARRNYDDTRGTDVFDIWGQGTMVTVSSASEPKSSDKTHTCPPCPAPEAAGGPSVFLFPPKPKDTLMISRTPEVTCVVVDVSHEDPEVKFNWYVDGVEVHNAKTKPREEQYNSTYRVVSVLTVLHQDWLNGKEYKCKVSNKALPAPIEKTISKAKGQPREPQVCTLPPSREEMTKNQVSLSCAVKGFYPSDIAVEWESNGQPENNYKTTPPVLDSDGSFFLVSKLTVDKSRWQQGNVFSCSVMHEALHNHYTQKSLSLSPGK	1.38	197 pM	8.11e-05 s⁻¹	412000 M⁻¹ s⁻¹	272 pM	0.000242 s⁻¹	890000 M⁻¹ s⁻¹	18600 MFI	322000 MFI	22.3 pM	1440 pg/mL	21.1 pM	100 pg/mL	8.39 pM	118 pg/mL	13.4 pM	240 pg/mL	2.93 pM	57.9%	8.18 pM	TNF-α release, Maximum [8]: 1280 pg/mL
PR002953 (bispecific antibody, human IgG1, lambda, L234A L235A) light: QAVVTQEPSLTVSPGGTVTLTCRSSTGAVTTSNYANWVQQKPGQAPRGLIGGTNKRAPWTPARFSGSLLGDKAALTLLGAQPEDEAEYFCALWYSNLWVFGGGTKLTVLGQPKAAPSVTLFPPSSEELQANKATLVCLISDFYPGAVTVAWKADSSPVKAGVETTTPSKQSNNKYAASSYLSLTPEQWKSHRSYSCQVTHEGSTVEKTVAPTECS heavy: not shown EVQLVETGGGLIQPGGSLRLSCAASGFTVSDNYMTWVRQAPGKGLEWVSVIFSGGNTYYADSVKGRFTISRDNAKNTLYLQMNSLRAEDTALYYCARRNYDDTRGTDVFDIWGQGTMVTVSSGGGGSGGGGSGGGGSEVQLVETGGGLIQPGGSLRLSCAASGFTVSDNYMTWVRQAPGKGLEWVSVIFSGGNTYYADSVKGRFTISRDNAKNTLYLQMNSLRAEDTALYYCARRNYDDTRGTDVFDIWGQGTMVTVSSASEPKSSDKTHTCPPCPAPEAAGGPSVFLFPPKPKDTLMISRTPEVTCVVVDVSHEDPEVKFNWYVDGVEVHNAKTKPREEQYNSTYRVVSVLTVLHQDWLNGKEYKCKVSNKALPAPIEKTISKAKGQPREPQVCTLPPSREEMTKNQVSLSCAVKGFYPSDIAVEWESNGQPENNYKTTPPVLDSDGSFFLVSKLTVDKSRWQQGNVFSCSVMHEALHNHYTQKSLSLSPGK	0.87	225 pM	0.000107 s⁻¹	474000 M⁻¹ s⁻¹	195 pM	7.12e-05 s⁻¹	365000 M⁻¹ s⁻¹	9710 MFI	17000 MFI	212 pM	640 pg/mL	795 pM	23.6 pg/mL	128 pM	68.5 pg/mL	208 pM	129 pg/mL	47 pM	57.5%	196 pM	TNF-α release, Maximum [8]: 894 pg/mL
